Measured values taken from patent US20220118089A1 (UNIVERSITY OF CHICAGO, published 2022).

What was measured:
[1] = target: human type III collagen (Millipore Sigma) (human) (UniProt P02461); assay: ELISA on plates coated with collagen III, 0-740 nM A3-IL4
[2] = target: recombinant mouse IL-4Ra protein (R&D Systems) (mouse) (UniProt P16382); assay: ELISA on plates coated with recombinant mouse IL-4Ra (10 µg/mL), 0-740 nM A3-IL4, detected with an antibody against mouse IL-4, A450; Kd from the fitted curve [B]
[3] = target: T1, human type III collagen (Millipore Sigma) (human, UniProt P02461 154-1221); assay: SPR (Biacore X100), human type III collagen immobilised by amine coupling, CBD-SA-IL-10 flowed, 1:1 Langmuir fit
T1 construct: treated as one molecule; also called collagen type III; collagen III
T1 sequence (looked up): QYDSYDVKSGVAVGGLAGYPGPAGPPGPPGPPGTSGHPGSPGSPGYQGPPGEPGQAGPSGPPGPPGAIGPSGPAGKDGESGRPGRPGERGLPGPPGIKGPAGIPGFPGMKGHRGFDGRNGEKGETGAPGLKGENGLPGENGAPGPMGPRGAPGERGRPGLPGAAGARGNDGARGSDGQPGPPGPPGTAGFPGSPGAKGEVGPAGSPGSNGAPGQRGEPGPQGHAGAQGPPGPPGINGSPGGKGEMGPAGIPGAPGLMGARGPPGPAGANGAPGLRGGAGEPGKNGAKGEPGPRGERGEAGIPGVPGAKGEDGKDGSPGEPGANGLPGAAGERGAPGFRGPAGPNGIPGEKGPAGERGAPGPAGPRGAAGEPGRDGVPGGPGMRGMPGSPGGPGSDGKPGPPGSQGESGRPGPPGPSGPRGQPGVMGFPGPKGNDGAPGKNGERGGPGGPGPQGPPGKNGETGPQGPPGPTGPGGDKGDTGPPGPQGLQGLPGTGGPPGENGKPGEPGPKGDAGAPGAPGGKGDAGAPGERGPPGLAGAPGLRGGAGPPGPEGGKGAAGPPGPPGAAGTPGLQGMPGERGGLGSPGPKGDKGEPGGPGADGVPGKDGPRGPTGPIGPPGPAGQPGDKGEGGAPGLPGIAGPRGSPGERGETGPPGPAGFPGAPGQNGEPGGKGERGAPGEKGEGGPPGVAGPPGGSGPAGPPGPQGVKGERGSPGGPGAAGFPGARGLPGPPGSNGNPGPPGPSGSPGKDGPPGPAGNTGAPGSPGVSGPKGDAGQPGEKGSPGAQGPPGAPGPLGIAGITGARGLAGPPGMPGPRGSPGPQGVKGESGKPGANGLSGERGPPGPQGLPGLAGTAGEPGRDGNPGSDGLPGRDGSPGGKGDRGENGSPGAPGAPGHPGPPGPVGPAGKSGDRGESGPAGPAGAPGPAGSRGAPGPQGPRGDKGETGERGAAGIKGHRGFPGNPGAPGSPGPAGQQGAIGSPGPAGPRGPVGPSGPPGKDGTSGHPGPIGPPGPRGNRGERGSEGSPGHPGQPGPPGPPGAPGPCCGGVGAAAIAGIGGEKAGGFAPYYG
Experimental: (§1) SPR measurements were carried out with Biacore X100 instrument. In collagen binding experiments, recombinant human type I or type III collagen (Millipore Sigma) were immobilized on a CMS sensor chip by standard amine coupling method (˜1500 resonance units (RUs)) and blocked with ethanolamine. […] In FcRn binding experiments, recombinant mouse FcRn (Acro Biosystems) was immobilized via amine coupling on a C1 chip (GE Healthcare) for ˜200 RU according to the manufacturer's instructions. […] The sensor chip was regenerated with PBS, pH 7.4 for every cycle.

[4] = target: T2, recombinant mouse FcRn (Acro Biosystems) (mouse, UniProt Q61559 22-297; P01887 21-119); assay: SPR (Biacore X100), mouse FcRn immobilised on a C1 chip, CBD-SA-IL-10 flowed at pH 5.8, 1:1 Langmuir fit
T2 construct: also called neonatal Fc receptor; murine FcRn recombinant protein
T2 sequence (looked up) 1: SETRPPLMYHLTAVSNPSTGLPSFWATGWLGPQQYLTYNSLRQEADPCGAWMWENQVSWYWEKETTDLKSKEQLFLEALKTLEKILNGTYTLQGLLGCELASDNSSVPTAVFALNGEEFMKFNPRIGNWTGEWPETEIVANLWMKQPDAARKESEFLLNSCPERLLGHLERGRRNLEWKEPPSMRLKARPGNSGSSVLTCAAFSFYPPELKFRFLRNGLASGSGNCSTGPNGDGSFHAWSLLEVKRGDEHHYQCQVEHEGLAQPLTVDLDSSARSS
T2 sequence (looked up) 2: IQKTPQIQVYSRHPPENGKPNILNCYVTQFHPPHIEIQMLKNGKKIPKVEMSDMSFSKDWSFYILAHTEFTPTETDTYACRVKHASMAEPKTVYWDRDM
Experimental: as §1

[5] = target: T3, human type I collagen (Millipore Sigma) (human, UniProt P02452 162-1218; P08123 80-1119); assay: SPR (Biacore X100), human type I collagen immobilised by amine coupling, CBD-SA-IL-10 flowed, 1:1 Langmuir fit
T3 construct: treated as one molecule; also called collagen type I
Experimental: as §1

T3 sequence (P02452 162-1218, chain 1 of 2): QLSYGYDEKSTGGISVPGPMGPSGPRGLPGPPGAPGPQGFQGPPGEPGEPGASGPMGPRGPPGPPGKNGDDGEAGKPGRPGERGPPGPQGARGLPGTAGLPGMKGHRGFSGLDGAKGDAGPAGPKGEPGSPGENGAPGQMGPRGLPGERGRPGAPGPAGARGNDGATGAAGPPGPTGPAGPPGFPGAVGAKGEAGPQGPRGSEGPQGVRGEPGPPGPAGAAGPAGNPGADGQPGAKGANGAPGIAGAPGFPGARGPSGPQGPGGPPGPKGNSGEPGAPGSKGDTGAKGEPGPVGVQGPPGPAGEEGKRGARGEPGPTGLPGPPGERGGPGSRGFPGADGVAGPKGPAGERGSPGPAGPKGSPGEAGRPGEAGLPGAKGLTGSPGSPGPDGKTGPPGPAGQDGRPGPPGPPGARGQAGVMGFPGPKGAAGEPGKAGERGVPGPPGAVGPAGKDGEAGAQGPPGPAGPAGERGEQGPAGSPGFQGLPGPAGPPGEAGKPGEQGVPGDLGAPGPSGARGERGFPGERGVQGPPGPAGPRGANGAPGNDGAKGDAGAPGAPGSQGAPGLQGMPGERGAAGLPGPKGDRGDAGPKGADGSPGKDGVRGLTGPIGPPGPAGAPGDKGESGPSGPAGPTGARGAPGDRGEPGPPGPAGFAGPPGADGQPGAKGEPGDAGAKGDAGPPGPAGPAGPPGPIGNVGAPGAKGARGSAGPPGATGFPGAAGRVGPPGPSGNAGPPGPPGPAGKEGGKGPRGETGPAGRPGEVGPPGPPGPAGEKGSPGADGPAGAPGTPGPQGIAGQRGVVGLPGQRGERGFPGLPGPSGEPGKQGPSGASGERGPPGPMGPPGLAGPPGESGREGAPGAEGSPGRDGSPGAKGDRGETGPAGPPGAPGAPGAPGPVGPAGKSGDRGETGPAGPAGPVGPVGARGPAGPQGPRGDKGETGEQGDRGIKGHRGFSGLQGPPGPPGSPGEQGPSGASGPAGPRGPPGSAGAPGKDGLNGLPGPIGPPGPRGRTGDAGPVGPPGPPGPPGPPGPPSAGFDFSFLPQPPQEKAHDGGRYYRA
T3 sequence (P08123 80-1119, chain 2 of 2): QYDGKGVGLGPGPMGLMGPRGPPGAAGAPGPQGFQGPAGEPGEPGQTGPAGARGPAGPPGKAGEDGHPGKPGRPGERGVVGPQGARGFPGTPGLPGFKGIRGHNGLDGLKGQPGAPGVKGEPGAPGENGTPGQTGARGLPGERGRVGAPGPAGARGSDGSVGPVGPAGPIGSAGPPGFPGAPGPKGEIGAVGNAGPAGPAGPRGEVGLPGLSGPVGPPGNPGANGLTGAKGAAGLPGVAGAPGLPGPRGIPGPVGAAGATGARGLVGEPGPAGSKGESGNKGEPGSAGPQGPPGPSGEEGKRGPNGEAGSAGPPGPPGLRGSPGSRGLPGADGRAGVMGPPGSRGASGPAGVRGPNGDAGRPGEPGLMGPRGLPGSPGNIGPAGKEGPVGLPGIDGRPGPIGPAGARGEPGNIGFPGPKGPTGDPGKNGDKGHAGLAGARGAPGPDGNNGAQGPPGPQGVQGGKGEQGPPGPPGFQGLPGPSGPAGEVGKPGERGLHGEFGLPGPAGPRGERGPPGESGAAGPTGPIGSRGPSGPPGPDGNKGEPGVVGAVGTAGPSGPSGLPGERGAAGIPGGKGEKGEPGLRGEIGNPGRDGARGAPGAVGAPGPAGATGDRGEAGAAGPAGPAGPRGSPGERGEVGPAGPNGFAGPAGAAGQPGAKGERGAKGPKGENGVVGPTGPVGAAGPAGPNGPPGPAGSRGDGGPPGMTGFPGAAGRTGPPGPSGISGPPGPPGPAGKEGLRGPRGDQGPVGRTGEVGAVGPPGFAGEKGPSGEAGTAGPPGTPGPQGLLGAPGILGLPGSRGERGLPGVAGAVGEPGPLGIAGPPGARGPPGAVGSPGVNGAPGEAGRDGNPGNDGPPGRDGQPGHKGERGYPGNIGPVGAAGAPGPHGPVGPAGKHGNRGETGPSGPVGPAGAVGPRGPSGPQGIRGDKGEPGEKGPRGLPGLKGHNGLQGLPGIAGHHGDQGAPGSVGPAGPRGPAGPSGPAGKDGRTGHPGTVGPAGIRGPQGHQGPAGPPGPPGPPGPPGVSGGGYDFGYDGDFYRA
recombinant mouse IL-4Ra protein (R&D Systems) (mouse), sequence (P16382 26-233 limits assumed): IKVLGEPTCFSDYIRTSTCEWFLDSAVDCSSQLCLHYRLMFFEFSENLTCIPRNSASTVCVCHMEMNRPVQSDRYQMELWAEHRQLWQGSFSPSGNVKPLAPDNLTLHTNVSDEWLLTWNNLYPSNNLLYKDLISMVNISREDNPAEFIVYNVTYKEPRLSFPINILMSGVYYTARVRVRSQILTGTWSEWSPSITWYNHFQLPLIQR

vWF A3 domain-fused IL-4 (human vWF A3 domain and mouse IL-4 fusion protein)
Kd [1]: 28.6 nM | Kd [2]: 100 nM

B1: Human VWF A3 domain (CBD), mouse serum albumin and mouse IL-10 fusion protein (other)
chain: CSQPLDVVLLLDGSSSLPESSFDKMKSFAKAFISKANIGPHLTQVSVIQYGSINTIDVPWNVVQEKAHLQSLVDLMQQEGGPSQIGDALAFAVRYVTSQIHGARPGASKAVVIIIMDTSLDPVDTAADAARSNRVAVFPVGVGDRYDEAQLRILAGPGASSNVVKLQQVEDLSTMATLGNSFFHKLCSGFSGVGGGSGGGSEAHKSEIAHRYNDLGEQHFKGLVLIAFSQYLQKCSYDEHAKLVQEVTDFAKTCVADESAANCDKSLHTLFGDKLCAIPNLRENYGELADCCTKQEPERNECFLQHKDDNPSLPPFERPEAEAMCTSFKENPTTFMGHYLHEVARRHPYFYAPELLYYAEQYNEILTQCCAEADKESCLTPKLDGVKEKALVSSVRQRMKCSSMQKFGERAFKAWAVARLSQTFPNADFAEITKLATDLTKVNKECCHGDLLECADDRAELAKYMCENQATISSKLQTCCDKPLLKKAHCLSEVEHDTMPADLPAIAADFVEDQEVCKNYAEAKDVFLGTFLYEYSRRHPDYSVSLLLRLAKKYEATLEKCCAEANPPACYGTVLAEFQPLVEEPKNLVKTNCDLYEKLGEYGFQNAILVRYTQKAPQVSTPTLVEAARNLGRVGTKCCTLPEDQRLPCVEDYLSAILNRVCLLHEKTPVSEHVTKCCSGSLVERRPCFSALTVDETYVPKEFKAETFTFHSDICTLPEKEKQIKKQTALAELVKHKPKATAEQLKTVMDDFAQFLDTCCKAADKDTCFSTEGPNLVTRCKDALAGGGSGGGSSRGQYSREDNNCTHFPVGQSHMLLELRTAFSQVKTFFQTKDQLDNILLTDSLMQDFKGYLGCQALSEMIQFYLVEVMPQAEKHGPEIKEHLNSLGEKLKTLRMRLRRCHRFLPCENKSKAVEQVKSDFNKLQDQGVYKAMNEFDIFINCIEAYMMIKMKSHHHHHH
notes: also called CBD-SA-IL-10; CBD-SA-fused IL-10
Kd [3]: 8 nM | koff [3]: 0.0026 s⁻¹ | Kd [4]: 1600 nM | koff [4]: 0.0084 s⁻¹ | kon [4]: 5210 M⁻¹ s⁻¹ | Kd [5]: 12.4 nM | koff [5]: 0.0034 s⁻¹
